# Reference: patent publication US10688077B2, “Inflammasome activation in myelodysplastic syndromes” (H. Lee Moffitt Cancer Center and Research Institute, Inc., priority 2015, dated 2020)
# B1: CD33-IgG1: S100A9 high-affinity chimeric (CD33-IgG1) decoy receptor (protein)
# chain: DPNFWLQVQESVTVQEGLCVLVPCTFFHPIPYYDKNSPVHGYWFREGAIISRDSPVATNKLDQEVQEETQGRFRLLGDPSRNNCSLSIVDARRRDNGSYFFRMERGSTKYSYKSPQLSVHVTDLTHRPKILIPGTLEPGHSKNLTCSVSWACEQGTPPIFSWLSAAPTSLGPRTTHSSVLIITPRPQDHGTNLTCQVKFAGAGVTTERTIQLNVTYVPQNPTTGIFPGDGSGKQETRAGVVH
# modifications: left off: a dimerising Fc or GST
# What was measured:
# lower-risk MDS BM-MNC = assay: qPCR of pyroptosis-related gene expression in lower-risk MDS BM-MNC; type: cell-based, human; conditions: 24 hours, versus autologous BM plasma alone, n=5
# Protocol: PCR RNA was isolated from BM-MNC using the RNeasy Mini Kit (Qiagen). cDNA was produced using the iScript cDNA Synthesis Kit (Bio-Rad). Sequences for primers can be found in Table 1. GAPDH mRNA was used for transcript normalization. cDNA was amplified using the iQ SYBR Green Supermix and the CFX96 Real-Time PCR Detection System (Bio-Rad). PCR conditions were as follows: 10 minutes at 95° C., followed by 40 cycles of amplification (15 seconds at 95° C. and 1 minute at 60° C.). Relative gene expression was calculated using the […] method.
# MDS BM-MNC = assay: Pyroptosis flow cytometry panel, MDS BM-MNC incubated with autologous BM plasma; type: cell-based, human
# Protocol: For human samples, treated and untreated BM-MNC were incubated overnight in IMDM, supplemented with 10% autologous BM plasma. Subsequently, cells were harvested, washed twice in 1×PBS, and stained with LIVE/DEAD Violet fluorescent reactive dye according to the manufacturer's protocol (Life Technologies). Cells were resuspended in 1×PBS with 2% BSA, and incubated at room temperature for 15 minutes to block non-specific binding. After washing, cells were stained with 30×FAM-FLICA® Caspase-1 and Caspase-3/7 solution at a ratio of 1:30 for 2 hours at 37° C. Cells were washed and stained for cell surface receptors using CD38:PE-CF594, CD33:BV711, CD34:APC (BD Biosciences), and CD71:PE-Cyanine7 (eBioscience). All antibodies were diluted 1:20, and cells were stained for 30 minutes at 4° C. Cells were washed, resuspended in 1× binding buffer, and stained with Annexin-V:Cy5.5 at a dilution of 1:20 for 15 minutes at room temperature (BD Biosciences). 1× binding buffer was added to a final volume of 400 μL. Sample acquisitions were carried out using a BD LSR II flow cytometer and FACSDiva software (BD Biosciences). Calibration of the flow cytometer was carried out prior to each experiment using Rainbow Mid-Range Fluorescent Particles (BD Biosciences). To establish fluorescence compensation settings, ArC Amine Reactive Compensation Beads were used for LIVE/DEAD Violet staining (Life Technologies), and BD CompBead Plus Anti-Mouse Ig κ/Negative Control (BSA) Compensation Plus Particles were used for surface receptor conjugates (BD Biosciences). Data were analyzed using FlowJo 9.7.5 software (FlowJo, LLC, Ashland, Oreg.).
molecule,measurement,setting,value
B1,CASP1 expression,lower-risk MDS BM-MNC,reduced
same,CASP3 expression,lower-risk MDS BM-MNC,markedly reduced
same,IL-1β expression,lower-risk MDS BM-MNC,reduced
same,IL-18 expression,lower-risk MDS BM-MNC,reduced
same,NLRP3 expression,lower-risk MDS BM-MNC,reduced
same,"reduction of the fraction of pyroptotic cells, maximum lineage-specific change, CD33+ cells","MDS BM-MNC; CD33+ immature myeloids, 0.5 μg CD33-IgG1 or 0.1 μM IRAK4 inhibitor, 24 hours, autologous BM plasma, n=4",68%
same,"reduction of the fraction of pyroptotic cells, maximum lineage-specific change, CD71+ cells","MDS BM-MNC; CD71+ erythroids, 0.5 μg CD33-IgG1 or 0.1 μM IRAK4 inhibitor, 24 hours, autologous BM plasma, n=4",64%
same,fraction of pyroptotic cells across all lineages studied,MDS BM-MNC; MDS BM-MNC with autologous BM plasma (FIG. 20),marked reduction
same,"reduction of the fraction of pyroptotic cells, maximum lineage-specific change, progenitor cells","MDS BM-MNC; progenitor cells (CD34+CD38+), 0.5 μg CD33-IgG1 or 0.1 μM IRAK4 inhibitor, 24 hours, autologous BM plasma, n=4",23%
same,MDSC fraction,MDS BM-MNC; short-term treatment,significantly reduced
same,"reduction of the fraction of pyroptotic cells, maximum lineage-specific change, stem cells","MDS BM-MNC; stem cells (CD34+CD38-), 0.5 μg CD33-IgG1 or 0.1 μM IRAK4 inhibitor, 24 hours, autologous BM plasma, n=4",44%
